Assay results taken from the supplement of paper PMC10567573.
± gives the standard deviation.

Experiment: protein stability index of a GFP-peptide fusion (GPS, HEK-293T) (PSI 1-6); higher = more stable
[1] = treatment: DMSO, c terminus: a fixed tail appended
[2] = treatment: MLN4924 1 uM, 8 h, c terminus: a fixed tail appended
[3] = treatment: DMSO, c terminus: native
[4] = treatment: MLN4924 1 uM, 8 h, c terminus: native
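Note: 24-mer peptide tiles fused after GFP, lentivirally expressed, FACS-sorted into six equal bins by GFP/DsRed ratio, decoded by Illumina sequencing, PSI is the read-weighted mean bin number.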

GSSDKVYAHQMVRTDSREQKLDAF [MLH1]
protein stability index [1]: 4.12 ± 0.13
protein stability index [2]: 4.13 ± 0.27

DGAEIAEKFVFFIGSKNGGKTTII [DYNC2LI1]
protein stability index [1]: 2.26 ± 0.78
protein stability index [2]: 2.05 ± 0.54

KDLILRFCIDSENRIGNSGVEEIK [STK38L]
protein stability index [1]: 2.472 ± 0.02
protein stability index [2]: 2.85 ± 0.42

YWTKYYDFKNPIIEKYLRRQLTKP [OAS1]
protein stability index [1]: 1.94 ± 0.33
protein stability index [2]: 2.11 ± 0.19

AREVKLLLLGAGESGKSTIVKQMK [GNAI1]
protein stability index [1]: 2.73 ± 0.25
protein stability index [2]: 2.62 ± 0.26

LEAQVESLKEELMCLKKNHEEEVS [KRT36]
protein stability index [1]: 5.47 ± 0.42
protein stability index [2]: 5.46 ± 0.15

MRTTNLDNRCKLFDSPSLCSSSTR [CDC25A]
protein stability index [1]: 3.21 ± 0.4
protein stability index [2]: 3.18 ± 0.24

ALATRALPCPAHVVFRYQGVRMS [FCHSD1]
protein stability index [3]: 3.1 ± 0.67
protein stability index [4]: 2.58 ± 0.84

APLGYKEPERQVQHEESTEGEADH [UFD1]
protein stability index [1]: 5.55 ± 0.22
protein stability index [2]: 5.5 ± 0.3

HTDMTNKQNKTPLDKSTTGVSEIL [FEM1B]
protein stability index [1]: 4.85 ± 0.49
protein stability index [2]: 5.05 ± 0.25

LLPLQREPLYNWQATKASLKERFA [BTBD1]
protein stability index [1]: 2.8 ± 0.22
protein stability index [2]: 2.82 ± 0.2

AMPDPTVPDSDIKALTTLCDLADR [ESRRG]
protein stability index [1]: 5.11 ± 0.28
protein stability index [2]: 5.15 ± 0.16

VNPFQLQQFRADPSTASLLLCPGG [TIAF1]
protein stability index [1]: 2.93 ± 0.11
protein stability index [2]: 2.78 ± 0.14

LRRSVEKYNSARADFEQKMLDSAL [FCHO1]
protein stability index [1]: 3.29 ± 0.54
protein stability index [2]: 3.35 ± 0.14

IFSQSSALILHQRIHSGKKPYACD [ZNF396]
protein stability index [1]: 2.32 ± 0.097
protein stability index [2]: 2.53 ± 0.24

PTYKGLLMSLQNQLKESKSKIDAL [CEP70]
protein stability index [1]: 2.45 ± 0.22
protein stability index [2]: 2.86 ± 0.19

QTGEWQNIAIMTEEPELSPAYLIS [GFOD1]
protein stability index [1]: 3.05 ± 0.17
protein stability index [2]: 3.25 ± 0.22

RTARALLDRDALKQSLVVAVQDHG [PCDHGA10]
protein stability index [1]: 3.72 ± 0.18
protein stability index [2]: 3.87 ± 0.34

DTMQNIESTIVELGSIFQQLAHMV [STX5]
protein stability index [1]: 2.47 ± 0.13
protein stability index [2]: 2.52 ± 0.38

EGNECKKMDMSVLEISGIIMSRVN [PHTF1]
protein stability index [1]: 2.55 ± 0.37
protein stability index [2]: 2.46 ± 0.31

EDVTVGRRQAVAWLVAMHKAAKLL [ZFYVE21]
protein stability index [1]: 2.48 ± 0.34
protein stability index [2]: 2.59 ± 0.35

VGVRMRDVKCYQGTDIVRGCDPLV [ADAMTSL2]
protein stability index [1]: 3.01 ± 0.29
protein stability index [2]: 3.09 ± 0.45

VIRRLDETVVNRIAAGEVIQRPAN [MLH1]
protein stability index [2]: 3.92 ± 0.28

SSRGAPRGGGRGGSRSDRGGGRSR [RBMX]
protein stability index [1]: 5.34 ± 0.18
protein stability index [2]: 5.45 ± 0.28

CKKLSLELGGKNPAIIFEDANLDE [ALDH8A1]
protein stability index [1]: 4.4 ± 0.11
protein stability index [2]: 4.32 ± 0.26

GVVVCEADTGRIHRFVEKPQVFVS [GMPPB]
protein stability index [1]: 2.25 ± 0.19
protein stability index [2]: 2.28 ± 0.3

FSKASDSLQLVFGIELMEVDPIGH [MAGEA6]
protein stability index [1]: 2.27 ± 0.56
protein stability index [2]: 2.42 ± 0.41

PFIVFGATGLTSGLLSLLLPETLN [SLC22A15]
protein stability index [1]: 3.19 ± 0.49
protein stability index [2]: 3.14 ± 0.42

GTTLVVGLLAGVGYFAFMLFRKRL [GDAP1]
protein stability index [1]: 2.41 ± 0.49
protein stability index [2]: 2.63 ± 0.22

EKYKPFSQVPTGEVFYYSCEYNFV [CFHR2]
protein stability index [1]: 2.78 ± 1.5

PGPVCQPPVSQSRSLFSSVPSKPP [ANKRD40]
protein stability index [1]: 4.34 ± 0.39
protein stability index [2]: 4.54 ± 0.48

NLRATDVRLMRQLLVINESIESIK [LURAP1L]
protein stability index [1]: 2.41 ± 0.16
protein stability index [2]: 2.58 ± 0.35

TGPAWNVLMWTMLFLGQGIQVSLY [SOAT2]
protein stability index [1]: 3.38 ± 0.42
protein stability index [2]: 3.26 ± 0.34

TLIPTCKFYTWLWGVFYYFVSALG [SCD]
protein stability index [1]: 2 ± 0.52
protein stability index [2]: 2.13 ± 0.15

QQREKLSLIRKHAQTFIALCATDF [CCND2]
protein stability index [1]: 2.25 ± 0.22
protein stability index [2]: 2.44 ± 0.13

VVLPGAVSLRYSGATAASETLSGH [ADAMTS4]
protein stability index [1]: 2.95 ± 0.46
protein stability index [2]: 2.96 ± 0.41

KYLKKREDSIPLRGLSQNLFSNSD [SASS6]
protein stability index [1]: 3.15 ± 0.2
protein stability index [2]: 3.4 ± 0.29

MLSWILRINLVAAIFSAPAFPAAV [PSD2]
protein stability index [1]: 3.23 ± 0.19
protein stability index [2]: 2.89 ± 0.39

NGTMTIDWNEWRDYHLLHPVENIP [SLC25A25]
protein stability index [1]: 3.18 ± 0.28
protein stability index [2]: 3.07 ± 0.19

LKDWEHSIALRNISLAKGPPGPKG [SCARA5]
protein stability index [1]: 3.68 ± 0.25
protein stability index [2]: 3.78 ± 0.36

RTAMPYGGYEKASKRMTFQMPKFD [MYOZ1]
protein stability index [1]: 2.76 ± 0.18
protein stability index [2]: 2.86 ± 0.23

LLVGRYPFHDSDPSALFSKIRRGQ [TRIB1]
protein stability index [1]: 2.22 ± 0.23
protein stability index [2]: 2.46 ± 0.53

KAMESQRAYRFVQGKDWGFKKFIR [SPOPL]
protein stability index [1]: 2.22 ± 0.38
protein stability index [2]: 2.09 ± 0.21

GRLELKPLLLRLPRICQRNLMSLL [FANCE]
protein stability index [1]: 2.63 ± 0.33
protein stability index [2]: 2.7 ± 0.23

GGDKLETMPLYLEDDIRPDIKDDI [SCD]
protein stability index [1]: 4.9 ± 0.4
protein stability index [2]: 5 ± 0.34

WASTSPGTDLPLSEIPRGVRVALD [TRIM15]
protein stability index [1]: 3.91 ± 0.29
protein stability index [2]: 3.87 ± 0.26

GNSTQATVRDAVVGRPSMDKKAQ [ATL3]
protein stability index [3]: 5.28 ± 0.13
protein stability index [4]: 5.21 ± 0.23

VTGEKEEPSRSASEADSEAGELRK [PPEF2]
protein stability index [1]: 5.35 ± 0.61
protein stability index [2]: 5.5 ± 0.29

SSQKQHSFTSSDKTIKSFFPHSGK [C8orf76]
protein stability index [1]: 3.9 ± 0.085
protein stability index [2]: 4.15 ± 0.14

DFDLDLVPWESDIWDINNQICTVK [ATF6]
protein stability index [1]: 3.06 ± 0.3
protein stability index [2]: 3 ± 0.21

GSLHYTTLRTLTGQDTMLKAMFSG [KCTD13]
protein stability index [1]: 2.46 ± 0.26
protein stability index [2]: 2.61 ± 0.21

GIHPLSSSEVDELIHKADEVTLSE [PALM]
protein stability index [1]: 5.35 ± 0.2
protein stability index [2]: 5.23 ± 0.12

RKILVLDLDETLIHSHHDGVLRPT [CTDNEP1]
protein stability index [1]: 2.46 ± 0.2
protein stability index [2]: 2.61 ± 0.17

TKPQNLNDAYGPPSNFLEIDVSNP [SNX3]
protein stability index [1]: 4.46 ± 0.42
protein stability index [2]: 4.29 ± 0.47

ANTIRGGGCYFGPDVTQQLLQKYN [PPEF2]
protein stability index [1]: 2.44 ± 0.35
protein stability index [2]: 2.59 ± 0.41

RTHTGEKPYTCSVCGKSFSRTTCL [ZNF8]
protein stability index [1]: 2.92 ± 0.31
protein stability index [2]: 3.35 ± 0.54

FLELAVGQRIRRGSIGVWHYICPR [SLC6A17]
protein stability index [1]: 2.99 ± 0.97
protein stability index [2]: 2.18 ± 0.5

VEPGTPPLDILAQPLEASNPALEG [DNAAF3]
protein stability index [1]: 5.35 ± 0.14
protein stability index [2]: 5.36 ± 0.21

GGAGSSEDDAQSRRDEQDDDDKGD [GOLPH3]
protein stability index [1]: 5.57 ± 0.24
protein stability index [2]: 5.69 ± 0.28

CQALDANLDANLAFASFTSGVVRI [TLE6]
protein stability index [1]: 2.66 ± 0.67
protein stability index [2]: 2.56 ± 0.37

HIGNSTQATVRDAVVGRPSMDKKA [ATL3]
protein stability index [1]: 3.97 ± 0.21
protein stability index [2]: 4.49 ± 0.6

FGYRPYDKNISPRENILVSLGAVG [SCD]
protein stability index [1]: 2.03 ± 0.44
protein stability index [2]: 2.75 ± 0.53

DVQARLNRSDHGIFHSRTSLQKLS [FCHSD1]
protein stability index [1]: 3.09 ± 0.22
protein stability index [2]: 3.16 ± 0.3

QVITQTGVPGQPLNFKAEPESETS [PTPRD]
protein stability index [1]: 5.18 ± 0.24
protein stability index [2]: 5.31 ± 0.25

FGTQVENFSTFIKCIFTQFRIILG [PKD2L1]
protein stability index [1]: 2.35 ± 0.058
protein stability index [2]: 2.24 ± 0.32

SQEESEEGEEDATSEVDKRRTRPR [CHGB]
protein stability index [1]: 5.57 ± 0.33
protein stability index [2]: 5.59 ± 0.2

GIFPLSFVKILKDFPEEDDPTNWL [NCF4]
protein stability index [1]: 2.6 ± 0.28
protein stability index [2]: 2.82 ± 0.33

ELKRLVESRRQQILREFEELHRRL [TRIM39]
protein stability index [1]: 2.44 ± 0.31
protein stability index [2]: 2.72 ± 0.38

LENAEVLELTVRRVQGVLRGRARE [HES6]
protein stability index [1]: 3.81 ± 0.33
protein stability index [2]: 3.88 ± 0.19

FGGGYGGGLGGGYGGGLGGGFGGG [KRT13]
protein stability index [1]: 2.37 ± 1.4
protein stability index [2]: 2.88 ± 0.15

QLQELLHHCDDHLSLYQLSLERGT [RSAD1]
protein stability index [1]: 2.34 ± 0.24
protein stability index [2]: 2.58 ± 0.34

RPRYKADVPDLQSVCSCTCYRSQD [KCNK9]
protein stability index [1]: 3.34 ± 0.41
protein stability index [2]: 3.67 ± 0.23

RRWGKRKNKPKMNYEKLSRGLRYY [ETS1]
protein stability index [1]: 2.44 ± 0.33
protein stability index [2]: 2.68 ± 0.38

AKARDLYKGRQLQGCPGAKKHEFL [SMOC2]
protein stability index [1]: 3.03 ± 0.3
protein stability index [2]: 3.2 ± 0.34

STHQEAENEKDRADQTVLTEDEKK [CHGB]
protein stability index [1]: 5.35 ± 0.48
protein stability index [2]: 5.83 ± 0.091

NSFGLRFGKREAAPGNHGRSAGRG [KISS1]
protein stability index [1]: 4.44 ± 0.4
protein stability index [2]: 4.4 ± 0.46

LLLAHKADVNAQSSTGNTALTYAC [ANKRD17]
protein stability index [1]: 2.76 ± 0.18
protein stability index [2]: 2.57 ± 0.18

RQILHLITMMALKVLGELNILPNT [TENT5D]
protein stability index [1]: 3.42 ± 0.64
protein stability index [2]: 2.81 ± 0.1

MDLSERQEVSSVRSLSSTGSLPSH [DLC1]
protein stability index [1]: 4.61 ± 0.25
protein stability index [2]: 4.47 ± 0.29

ELIRNIYNSFHKLRDRAERIASRA [SNX8]
protein stability index [1]: 2.22 ± 0.75
protein stability index [2]: 2.17 ± 0.27

SLSNAVANTMEHLSLLDNNIPGNS [FBXO33]
protein stability index [1]: 3.64 ± 0.092
protein stability index [2]: 3.94 ± 0.28

DRTSLATFHEGKHNISHMSMDIAR [WDFY1]
protein stability index [1]: 3.54 ± 0.24
protein stability index [2]: 3.56 ± 0.33

VPRPGIPPMTQAQAVSAPGILNRP [ZNF207]
protein stability index [1]: 4.55 ± 0.063
protein stability index [2]: 4.45 ± 0.086

ENLSVPVIGALLRFNQAILVSRHD [LPCAT4]
protein stability index [1]: 2.43 ± 0.61
protein stability index [2]: 2.5 ± 0.34

KKTMSTFHNLVSLNLNYNCISDEL [FBXO39]
protein stability index [1]: 2.09 ± 0.21
protein stability index [2]: 2.18 ± 0.22

RIAAVEALCMLAQSSPSFAEKCLD [INTS4]
protein stability index [1]: 2.46 ± 0.49
protein stability index [2]: 2.2 ± 0.53

LFTDLFDRKGYMFDYEYDWIGKQL [CSNK1G3]
protein stability index [1]: 2.24 ± 0.32
protein stability index [2]: 2.15 ± 0.3

RSWAMLFASGGFQVKLYDIEQQQI [CRYL1]
protein stability index [1]: 2.16 ± 0.34
protein stability index [2]: 2.28 ± 0.67

ARNNNDPGRLTEALCLEVRPTYFE [RNF180]
protein stability index [1]: 4.97 ± 0.23
protein stability index [2]: 4.96 ± 0.18
